Experimental data taken from patent US20210371506A1 (JIANGSU HENGRUI MEDICINE, published 2021).
Where a chain is given by its changes, count along the chain named. Values belong to the binder of their own block, whether it stands above or below them.

How the values were obtained:
Aβ1-42 monomer [1] = target: Aβ1-42 monomer (human); assay: cell-based or functional assay
Aβ1-42 fibrils [2] = target: T1, Aβ1-42 fibrils (human); assay: SPR, Biacore T200; Aβ1-42 fibrils amine-coupled to CM5 chip, antibody flowed over
T1 construct: Synthetic Aβ1-42 polypeptide (GL Biochem) made into fibrils in vitro (DMSO, diluted in water, 37 °C for 10 days); In the phagocytosis assays the fibrils were fluorescence (FITC) labeled; also called Aβ fibrils; Abeta fibrils
Description: (§1) The affinity of an antibody to Aβ1-42 fibrils was detected by the method of amino coupling. Aβ1-42 fibrils was coupled to CM5 biosensing chip (200 RU), and then the antibody molecules were allowed to flow through the surface of the chip. The reaction signals were detected in real time with Biacore T200 instrument to generate a binding and dissociation curve. At the end of each experimental cycle, after the dissociation was completed, the biosensor chip was washed and regenerated with 10 mM Glycine-HCl (pH 1.5). The positive antibody, Aducanumab, was prepared according to the sequence information about Aducanumab released by WHO (see WHO Drug Information, Vol. 28, No. 3, 2014), and the preparation method was described in Example 4 of the present disclosure.

Aβ1-42 monomer [3] = target: T2, Aβ1-42 monomer (human); assay: SPR, Biacore T200; IgG captured on Protein A chip, Aβ1-42 monomer flowed over
T2 construct: Synthetic peptide: Sigma A9810 dissolved in DMSO for Biacore; GenScript RP10017 in NaOH/PBS for the ThT assay; also called human Aβ1-42
Description: (§2) The affinity of an antibody to Aβ1-42 monomer was detected by capturing antibody on the chip. IgG was affinity-captured onto Protein A biosensing chip, and then the antigen […] monomer was allowed to flow through the surface of the chip. The reaction signals were detected in real time with Biacore T200 instrument to generate a binding and dissociation curve. At the end of each experimental cycle, after the dissociation was completed, the biosensor chip was washed and regenerated with 10 mM Glycine-HCl (pH1.5).

Aβ1-42 monomer [4] = target: T2, Aβ1-42 monomer; assay: SPR, Biacore T200; IgG on Protein A chip, Aβ1-42 monomer as analyte; reference Aducanumab
Description: as §2

Aβ1-42 fibrils [5] = target: T1, Aβ1-42 fibrils; assay: SPR, Biacore T200; Aβ1-42 fibrils on CM5 chip; reference Aducanumab
Description: as §1

T1 sequence (peptide, as listed by the source): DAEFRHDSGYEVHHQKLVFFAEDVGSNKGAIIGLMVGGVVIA
T2 sequence (peptide, as listed by the source): as above

IC50 (read off the curve) (Aβ1-42 monomer [1]): ~800 nM | Kd (Aβ1-42 fibrils [2]): 1.22 nM | Kd (Aβ1-42 monomer [3]): 333 nM
B1: HAB-5101 (antibody, human IgG1, kappa, V domains shown)
VH: QVTLKESGPALVKPTQTLTLTCTFSGFSLSTSGMGVSWIRQPPGKALEWLAHIYWDDVSLYNPSLKSRLTISKDTSKNQVVLTMTNMDPVDTATYYCARRRIITVVDAMDYWGQGTTVTVSS
VL: DVVMTQTPLSLPVTPGEPASISCRSSQSIVHSNGNTYLEWYLQKPGQSPKLLIYKVSNRFSGVPDRFSGSGSGTDFTLKISRVEAEDVGVYYCSQGSRVPPTFGGGTKVEIKR

affinity relative to Aducanumab (Aβ1-42 monomer [4]): 2 orders of magnitude | Kd (Aβ1-42 fibrils [2]): 0.213 nM | Kd (Aβ1-42 monomer [3]): 27.9 nM | affinity relative to Aducanumab (Aβ1-42 fibrils [5]): 2 orders of magnitude
B2: HAB-9001 (antibody, human IgG1, kappa, V domains shown)
VH: QVTLKESGPALVKPTQTLTLTCTFSGFSLSTFGMGVGWIRQPPGKALEWLAHIWWDDNKYYNPALKSRLTISKDTSKNQVVLTMTNMDPVDTATYYCARRGFHLGSRGDYFDHWGQGTTVTVSS
VL: B1 VL with K50Q, S94F, P101L, G105Q, V109L

Kd (Aβ1-42 fibrils [2]): 11.7 nM | Kd (Aβ1-42 monomer [3]): 229 nM
B3: HAB-2401 (antibody, human IgG1, kappa, V domains shown)
VH: EVQLVQSGAEVKKPGASVKVSCKVSGYTLTNTYMHWVRQAPGKGLEWMGRIDPTNGNTKYAPKFKDRVTMTADTSTDTAYMELSSLRSEDTAVYYCARRVYYYDSTYNYWGKGTTVTVSS
VL: DIQMTQSPSSLSASVGDRVTITCKSSQSLLNSGNQKNYLTWYQQKPGKVPKLLIYWASTRESGVPSRFSGSGSGTDFTLTISSLQPEDVATYYCQNDYNYPLTFGGGTKVEIKR
